Laboratory results from the supplement of paper PMC10126150.
± gives the standard deviation of the averaged measurements.

Test system: ATP
Assay: switch fluorescence ratio, 500 uM ATP over buffer (Cy3 cluster intensity, sum of 5 cycles each) (fold (ratio)); higher = stronger signal-on switching upon ATP binding; sequences stand for … in TCGTCGGCAGCGTCAGATGTGTATAAGAGACAGTTTTTTTTTTTTTTTTTTTTTTTTT…TC
Details: aptamer strand: ATP DNA aptamer (quencher-CACCTGGGGGAGTATTGCGGAGGAAGG + anchor), 100 nM annealed; ATP concentration: 500 uM
Method in brief: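 The fluorescence ratio divides summed target-cycle Cy3 intensity by summed buffer-cycle Cy3 intensity for each cluster and is averaged per switch-domain sequence. Cy3-labelled switching-strand clusters on a modified Illumina MiSeq flow-cell were annealed to 100 nM quencher-labelled ATP aptamer, then imaged in selection buffer and again after 15 min with 500 uM ATP at 22 °C. Five such cycles were run, with NaOH stripping and re-annealing between them, and clusters outside 100-1000 RFU were excluded.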
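Also: ATP exposure 15 min at 22 °C before imaging.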

Sequence	switch fluorescence ratio
GGGGCAAGGG	1.28 ± 0.28
GGGGCACGCT	0.999 ± 0.03
GGGGCAGCCG	1.01 ± 0.059
GGGGCAGGGG	1.05 ± 0.062
GGGGCAGTGT	0.991 ± 0.042
GGGGCCAAGT	0.981 ± 0.037
GGGGCCGGGT	0.998 ± 0.02
GGGGCCGTGC	1.01 ± 0.038
GGGGCCTTGG	1.01 ± 0.022
GGGGCGCGGG	1.03 ± 0.033
GGGGCGCGGT	1.025 ± 0.0058
GGGGCGGCGA	1.02 ± 0.047
GGGGCGGGGA	0.996 ± 0.045
GGGGCGTCAG	0.97 ± 0.013
GGGGCGTTCG	1 ± 0.071
GGGGCTAACG	1.02 ± 0.03
GGGGCTAAGC	1 ± 0.026
GGGGCTACTA	1.01 ± 0.014
GGGGCTATCG	1.16 ± 0.24
GGGGCTGAGG	0.93589 ± 0.00088
GGGGCTGCTT	0.9718 ± 0.0035
GGGGCTGGCG	1.03 ± 0.11
GGGGCTTATG	0.968 ± 0.0079
GGGGCTTCTA	0.957 ± 0.018
GGGGCTTTCC	1.09 ± 0.052

Sequence	switch fluorescence ratio
GGGGGAAACT	1.013 ± 0.0073
GGGGGAAAGT	0.992 ± 0.026
GGGGGAACCT	1.0549 ± 0.00095
GGGGGAAGGG	0.984 ± 0.027
GGGGGAAGTG	0.976 ± 0.026
GGGGGAATAT	1.13 ± 0.39
GGGGGACACT	1.01 ± 0.022
GGGGGACAGA	0.969 ± 0.013
GGGGGACCGG	1.01 ± 0.072
GGGGGACCTA	0.946 ± 0.026
GGGGGACCTT	1.04 ± 0.061
GGGGGACGTT	0.981 ± 0.031
GGGGGACTGT	0.938 ± 0.057
GGGGGAGCAC	0.997 ± 0.017
GGGGGAGCTA	1 ± 0.032
GGGGGAGCTT	0.9828 ± 0.0078
GGGGGAGGAT	1.03 ± 0.057
GGGGGAGGCT	0.987 ± 0.034
GGGGGAGGGC	1.01 ± 0.031
GGGGGAGTCC	0.985 ± 0.014
GGGGGAGTGT	0.985 ± 0.026
GGGGGATCAT	0.9921 ± 0.0016
GGGGGATGCT	0.975 ± 0.039
GGGGGATGTT	0.997 ± 0.026
GGGGGATTTT	0.999 ± 0.027

Sequence	switch fluorescence ratio
GGGGGCAACA	0.973 ± 0.03
GGGGGCAATT	0.987 ± 0.021
GGGGGCAGAG	0.991 ± 0.035
GGGGGCAGCT	1 ± 0.027
GGGGGCAGGC	0.964 ± 0.053
GGGGGCAGTT	1 ± 0.013
GGGGGCATCG	1.01 ± 0.018
GGGGGCCATC	1.003 ± 0.0017
GGGGGCCCTT	1.02 ± 0.043
GGGGGCCGCC	0.988 ± 0.01
GGGGGCCTAG	0.981 ± 0.035
GGGGGCGACT	0.978 ± 0.021
GGGGGCGCTG	1.02 ± 0.028
GGGGGCGTTC	1.015 ± 0.005
GGGGGCTAGG	1.02 ± 0.02
GGGGGCTGCC	0.986 ± 0.011
GGGGGCTGCT	0.962 ± 0.029
GGGGGCTGGT	1 ± 0.0022
GGGGGCTTGT	1 ± 0.019
GGGGGGAATA	1 ± 0.047
GGGGGGAGAC	1.07 ± 0.19
GGGGGGATCA	0.985 ± 0.026
GGGGGGCCTC	0.981 ± 0.015
GGGGGGCGTT	0.998 ± 0.017
GGGGGGCTAA	0.984 ± 0.021

Sequence	switch fluorescence ratio
GGGGGGCTAT	0.976 ± 0.02
GGGGGGGAG	1.02 ± 0.021
GGGGGGGCAT	1.02 ± 0.031
GGGGGGGCCC	1.01 ± 0.026
GGGGGGGCCT	0.999 ± 0.036
GGGGGGGCTC	0.965 ± 0.035
GGGGGGGGCG	1.01 ± 0.052
GGGGGGGGGA	1.01 ± 0.039
GGGGGGGTCA	0.994 ± 0.027
GGGGGGGTTG	1.01 ± 0.083
GGGGGGTAGA	1.02 ± 0.043
GGGGGGTCCC	0.9957 ± 0.0037
GGGGGGTCT	1.09 ± 0.051
GGGGGGTGAG	0.974 ± 0.037
GGGGGGTGCA	1.02 ± 0.018
GGGGGGTGGC	1.05 ± 0.15
GGGGGGTGTT	1.01 ± 0.019
GGGGGGTTGA	1.1 ± 0.2
GGGGGGTTTC	1.1 ± 0.2
GGGGGGTTTG	1 ± 0.037
GGGGGGTTTT	1.01 ± 0.059
GGGGGTAAGA	0.981 ± 0.028
GGGGGTAGTG	0.9946 ± 0.0063
GGGGGTATTA	0.97014 ± 0.00019
GGGGGTATTG	0.99 ± 0.041

Sequence	switch fluorescence ratio
GGGGGTCCCG	1 ± 0.012
GGGGGTCGGT	1.01 ± 0.048
GGGGGTCTGA	1 ± 0.024
GGGGGTCTGG	0.9855 ± 0.0097
GGGGGTGAAT	1 ± 0.037
GGGGGTGATG	1 ± 0.035
GGGGGTGGCT	1.027 ± 0.0069
GGGGGTGGGT	1 ± 0.021
GGGGGTGGTC	1.01 ± 0.04
GGGGGTGTCG	0.994 ± 0.035
GGGGGTGTGG	0.999 ± 0.035
GGGGGTTCAA	0.983 ± 0.025
GGGGGTTGAC	1.01 ± 0.027
GGGGGTTGGC	0.966 ± 0.047
GGGGGTTGGT	0.996 ± 0.026
GGGGGTTGTG	1 ± 0.036
GGGGGTTGTT	0.997 ± 0.025
GGGGTAAAGA	1.02 ± 0.036
GGGGTAAGGC	0.979 ± 0.019
GGGGTAATAG	1.12 ± 0.14
GGGGTAATAT	1.06 ± 0.053
GGGGTACATG	1.022 ± 0.0055
GGGGTACGAT	1.02 ± 0.027
GGGGTACGGC	1.03 ± 0.041
GGGGTACTAG	0.9981 ± 0.0071

Sequence	switch fluorescence ratio
GGGGTAGACA	1 ± 0.031
GGGGTAGAGA	0.99 ± 0.015
GGGGTAGCAT	0.986 ± 0.028
GGGGTAGCGT	0.99 ± 0.03
GGGGTAGTCA	1 ± 0.035
GGGGTAGTCG	0.988 ± 0.012
GGGGTATCAT	0.983 ± 0.03
GGGGTATCTC	0.986 ± 0.021
GGGGTATGGG	0.985 ± 0.038
GGGGTATGTG	0.992 ± 0.039
GGGGTCCTAA	0.986 ± 0.011
GGGGTCCTTT	0.9886 ± 0.0044
GGGGTCGGG	0.977 ± 0.044
GGGGTCTGGG	0.966 ± 0.016
GGGGTGAGAG	0.993 ± 0.026
GGGGTGATAG	1 ± 0.042
GGGGTGATCA	1.05 ± 0.064
GGGGTGATCC	1.01 ± 0.012
GGGGTGCCAA	0.975 ± 0.067
GGGGTGGAGG	1.02 ± 0.017
GGGGTGGAGT	0.971 ± 0.019
GGGGTGGGAG	1.01 ± 0.041
GGGGTGGGGA	1 ± 0.036
GGGGTGGGGC	1 ± 0.042
GGGGTGGTAA	1.01 ± 0.02

Sequence	switch fluorescence ratio
GGGGTGTAAT	1.01 ± 0.021
GGGGTGTAGC	0.992 ± 0.042
GGGGTGTAGG	0.993 ± 0.024
GGGGTGTGAC	1.022 ± 0.0026
GGGGTGTGCT	1.1 ± 0.16
GGGGTTAAAT	1 ± 0.047
GGGGTTACGG	0.996 ± 0.062
GGGGTTAGGG	1 ± 0.032
GGGGTTATGG	0.984 ± 0.041
GGGGTTCCGC	1.05 ± 0.026
GGGGTTCGCG	1.004 ± 0.0048
GGGGTTCGGC	1.058 ± 0.0023
GGGGTTGAAG	0.979 ± 0.01
GGGGTTGACA	1.04 ± 0.051
GGGGTTGAGG	0.993 ± 0.023
GGGGTTGCGA	0.996 ± 0.018
GGGGTTGGGG	0.994 ± 0.031
GGGGTTGTGG	0.988 ± 0.032
GGGGTTTAAT	1 ± 0.034
GGGGTTTCCG	0.9992 ± 0.0093
GGGGTTTGGT	0.984 ± 0.038
GGGGTTTTAT	1.01 ± 0.018
GGGGTTTTGA	0.97725 ± 0.00091
GGGGTTTTGG	0.995 ± 0.025
GGGTAAAAAG	0.991 ± 0.018

Sequence	switch fluorescence ratio
GGGTAACGAG	1.006 ± 0.0078
GGGTAAGAGA	1.04 ± 0.079
GGGTAAGGCA	0.986 ± 0.071
GGGTAATGTA	1.02 ± 0.014
GGGTAATTTT	1.02 ± 0.047
GGGTACAGGT	1.18 ± 0.2
GGGTACGCTT	1 ± 0.025
GGGTAGAATG	1.02 ± 0.03
GGGTAGCCTG	0.982 ± 0.02
GGGTAGCTCG	0.987 ± 0.031
GGGTAGGAAA	1.011 ± 0.007
GGGTAGGGCC	1.026 ± 0.0023
GGGTAGGGGG	0.989 ± 0.02
GGGTAGGGTC	1.01 ± 0.022
GGGTAGTGAG	0.999 ± 0.02
GGGTATACGG	0.982 ± 0.086
GGGTATAGGC	0.981 ± 0.046
GGGTATAGGT	0.999 ± 0.016
GGGTATCACG	1 ± 0.017
GGGTATCAGG	0.965 ± 0.016
GGGTATCTAT	1.012 ± 0.0067
GGGTATGGCT	1.02 ± 0.018
GGGTATGTAT	0.992 ± 0.027
GGGTATGTGG	0.972 ± 0.032
GGGTATGTGT	0.986 ± 0.015
